# B1: DD12 dsDNA (Dickerson dodecamer) (dsDNA)
# DNA 1: CGCGAATTCGCG
# DNA 2: CGCGAATTCGCG
# Assays:
# BAF250a ARID WT = BAF250a ARID WT (UniProt O14497 968-1143); assay: ITC; 25 C; dH 1.51 kcal/mol; n 1.03; ITC: 50 mM NaH2PO4 pH 6, 0.025 mM EDTA, 25 C; 20 uM DNA in cell titrated with 200 uM protein; settings: protein: recombinant; tags: N-terminal 6xHis (pET28a); blunt; self-complementary palindrome, 2 copies; snap cooled on ice after heating
# BAF250a ARID V1067G = BAF250a ARID V1067G (UniProt O14497 968-1143, V1067G); assay: ITC; 25 C; dH -0.69 kcal/mol; n 1.04; ITC: 50 mM NaH2PO4 pH 6, 0.025 mM EDTA, 25 C; 20 uM DNA in cell titrated with 200 uM protein; settings: protein: recombinant; tags: N-terminal 6xHis (pET28a); blunt; self-complementary palindrome, 2 copies; snap cooled on ice after heating
# Chain of BAF250a ARID V1067G (O14497 968-1143 V1067G): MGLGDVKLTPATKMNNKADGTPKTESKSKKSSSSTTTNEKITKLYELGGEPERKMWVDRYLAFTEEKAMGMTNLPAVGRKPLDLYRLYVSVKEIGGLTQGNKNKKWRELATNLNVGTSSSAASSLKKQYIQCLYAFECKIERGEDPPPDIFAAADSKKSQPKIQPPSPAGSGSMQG
# Chain of BAF250a ARID WT (O14497 968-1143): as the sequence (O14497 968-1143 V1067G) above, with G100V counted along it
binder,measurement,setting,value
B1,Kd,BAF250a ARID WT,71.9 ± 37.7 nM
same,Kd,BAF250a ARID V1067G,694 ± 331 nM
